In paper PMC9971907, “Cryo-EM analysis of V/A-ATPase intermediates reveals the transition of the ground-state structure to steady-state structures by sequential ATP binding” (The Journal of Biological Chemistry, 2023):

Target: T1, V/A-ATPase D subunit, Thermus thermophilus (T. thermophilus, UniProt O87880 1-223)
T1 construct: V/A-ATPase D subunit (central rotor), Thermus thermophilus; also called part of the DF rotor; DF axis
T1 sequence: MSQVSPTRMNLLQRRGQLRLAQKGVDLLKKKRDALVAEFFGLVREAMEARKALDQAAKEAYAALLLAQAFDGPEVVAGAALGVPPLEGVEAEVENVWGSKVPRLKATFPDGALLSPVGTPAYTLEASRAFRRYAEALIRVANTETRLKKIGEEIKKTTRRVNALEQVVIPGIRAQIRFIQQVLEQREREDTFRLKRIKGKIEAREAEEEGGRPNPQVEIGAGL
Test: cryo-EM structure; nucleotide-free V/A-ATPase in nanodiscs, 4 uM enzyme mixed with an equal volume of x2 RB buffer (50 mM Tris-Cl pH 8.0, 100 mM KCl, 2 mM MgCl2, 5 mM PEP, 100 ug/ml PK, 20 mM ammonium sulfate) with ATP-Mg (low ATP, 60 s; or saturating ATP, 5 s or 30 s) at 25 °C; single-particle analysis, membrane domain subtracted, focused refinement of V1EG
Settings: both partners purified

- binding result: binds
B1: V/A-ATPase F subunit, Thermus thermophilus (natural protein, T. thermophilus)
chain: MAVIADPETAQGFRLAGLEGYGASSAEEAQSLLETLVERGGYALVAVDEALLPDPERAVERLMRGRDLPVLLPIAGLKEAFQGHDVEGYMRELVRKTIGFDIKL
notes: V/A-ATPase F subunit (central rotor), Thermus thermophilus; also called part of the DF rotor; DF axis
